Results: patent US20230158141A1 (YAFEI SHANGHAI BIOLOG MEDICINE SCIENCE AND TECHNOLOGY, published 2023)
Residue numbers refer to the chain shown, from its start. Names and notes keep the numbering of the source.

B1: anti-PD-1 antibody 2 HC Gly44Cys (antibody, human IgG4 S228P, kappa, V domains shown)
VH: QVQLVESGGGVVQPGRSLRLDCKASGITFSNSGMHWVRQAPGKCLEWVAVIWYDGSKRYYADSVKGRFTISRDNSKNTLFLQMNSLRAEDTAVYYCATNDDYWGQGTLVTVSS
VL: EIVLTQSPATLSLSPGERATLSCRASQSVSSYLAWYQQKPGQAPRLLIYDASNRATGIPARFSGSGSGTDFTLTISSLEPEDFAVYYCQQSSNWPRTFGQGTKVEIKR
modifications: arm on Cys44 as named in each row
B2: anti-PD-1 antibody 2 HC Ser17Cys (antibody, human IgG4 S228P, kappa, V domains shown)
VH: B1 VH with S17C, C44G
VL: B1 VL
modifications: arm on Cys17 as named in each row
B3: anti-PD-1 antibody 2 HC Ser25Cys (antibody, human IgG4 S228P, kappa, V domains shown)
VH: B1 VH with S25C, C44G
VL: B1 VL
modifications: arm on Cys25 as named in each row
B4: anti-PD-1 antibody 2 HC Ser30Cys (antibody, human IgG4 S228P, kappa, V domains shown)
VH: B1 VH with S30C, C44G
VL: B1 VL
modifications: arm on Cys30 as named in each row
B5: anti-PD-1 antibody 2 HC Ser71Cys (antibody, human IgG4 S228P, kappa, V domains shown)
VH: B1 VH with C44G, S71C
VL: B1 VL
modifications: arm on Cys71 as named in each row
B6: anti-PD-1 antibody 2 HC Ser75Cys (antibody, human IgG4 S228P, kappa, V domains shown)
VH: B1 VH with C44G, S75C
VL: B1 VL
modifications: arm on Cys75 as named in each row
B7: anti-PD-1 antibody 2 HC Ser85Cys (antibody, human IgG4 S228P, kappa, V domains shown)
VH: B1 VH with C44G, S85C
VL: B1 VL
modifications: arm on Cys85 as named in each row
B8: anti-PD-1 antibody 2 HC Thr28Cys (antibody, human IgG4 S228P, kappa, V domains shown)
VH: B1 VH with T28C, C44G
VL: B1 VL
modifications: arm on Cys28 as named in each row
B9: anti-PD-1 antibody 2 HC Thr78Cys (antibody, human IgG4 S228P, kappa, V domains shown)
VH: B1 VH with C44G, T78C
VL: B1 VL
modifications: arm on Cys78 as named in each row
B10: anti-PD-1 antibody 2 HC Thr91Cys (antibody, human IgG4 S228P, kappa, V domains shown)
VH: B1 VH with C44G, T91C
VL: B1 VL
modifications: arm on Cys91 as named in each row
B11: anti-PD-1 antibody 2 HC Thr98Cys (antibody, human IgG4 S228P, kappa, V domains shown)
VH: B1 VH with C44G, T98C
VL: B1 VL
modifications: arm on Cys98 as named in each row
B12: anti-CTLA-4 antibody light chain A25C (antibody, human IgG1, kappa, V domains shown)
VH: QVQLVESGGGVVQPGRSLRLSCAASGFTFSSYTMHWVRQAPGKGLEWVTFISYDGNNKYYADSVKGRFTISRDNSKNTLYLQMNSLRAEDTAIYYCARTGWLGPFDYWGQGTLVTVSS
VL: not shown
B13: anti-CTLA-4 antibody light chain G30C (antibody, human IgG1, kappa, V domains shown)
VH: B12 VH
VL: not shown
B14: anti-CTLA-4 antibody light chain G51C (antibody, human IgG1, kappa, V domains shown)
VH: B12 VH
VL: not shown
B15: anti-CTLA-4 antibody light chain G58C (antibody, human IgG1, kappa, V domains shown)
VH: B12 VH
VL: not shown
B16: anti-CTLA-4 antibody light chain G93C (antibody, human IgG1, kappa, V domains shown)
VH: B12 VH
VL: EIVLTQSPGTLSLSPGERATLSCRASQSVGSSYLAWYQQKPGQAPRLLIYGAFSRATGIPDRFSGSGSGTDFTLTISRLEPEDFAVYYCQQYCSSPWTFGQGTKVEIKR
B17: anti-CTLA-4 antibody light chain S26C (antibody, human IgG1, kappa, V domains shown)
VH: B12 VH
VL: not shown
notes: also called CTLA-4-Ser26Cys
B18: anti-CTLA-4 antibody light chain S28C (antibody, human IgG1, kappa, V domains shown)
VH: B12 VH
VL: not shown
B19: anti-CTLA-4 antibody light chain S31C (antibody, human IgG1, kappa, V domains shown)
VH: B12 VH
VL: not shown
B20: anti-CTLA-4 antibody light chain S32C (antibody, human IgG1, kappa, V domains shown)
VH: B12 VH
VL: not shown
B21: anti-CTLA-4 antibody light chain S54C (antibody, human IgG1, kappa, V domains shown)
VH: B12 VH
VL: not shown
B22: anti-CTLA-4 antibody light chain S94C (antibody, human IgG1, kappa, V domains shown)
VH: B12 VH
VL: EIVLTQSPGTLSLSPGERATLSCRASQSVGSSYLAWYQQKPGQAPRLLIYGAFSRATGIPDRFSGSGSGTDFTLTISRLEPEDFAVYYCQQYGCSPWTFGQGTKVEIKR
B23: anti-CTLA-4 antibody light chain S95C (antibody, human IgG1, kappa, V domains shown)
VH: B12 VH
VL: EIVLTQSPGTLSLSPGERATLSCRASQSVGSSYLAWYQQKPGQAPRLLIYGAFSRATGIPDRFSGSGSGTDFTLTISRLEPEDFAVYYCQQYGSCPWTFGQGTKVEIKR
B24: anti-CTLA-4 antibody light chain T57C (antibody, human IgG1, kappa, V domains shown)
VH: B12 VH
VL: not shown
B25: anti-PD-1 antibody 1 heavy chain G50C (antibody, human IgG4 S228P, kappa, V domains shown)
VH: QVQLVQSGVEVKKPGASVKVSCKASGYTFTNYYMYWVRQAPGQGLEWMGCINPSNGGTNFNEKFKNRVTLTTDSSTTTAYMELKSLQFDDTAVYYCARRDYRFDMGFDYWGQGTTVTVSS
VL: EIVLTQSPATLSLSPGERATLSCRASKGVSTSGYSYLHWYQQKPGQAPRLLIYLASYLESGVPARFSGSGSGTDFTLTISSLEPEDFAVYYCQHSRDLPLTFGGGTKVEIKR
B26: anti-PD-1 antibody 1 heavy chain G56C (antibody, human IgG4 S228P, kappa, V domains shown)
VH: B25 VH with C50G, G56C
VL: B25 VL
B27: anti-PD-1 antibody 1 heavy chain G57C (antibody, human IgG4 S228P, kappa, V domains shown)
VH: B25 VH with C50G, G57C
VL: B25 VL
B28: anti-PD-1 antibody 1 heavy chain G106C (antibody, human IgG4 S228P, kappa, V domains shown)
VH: B25 VH with C50G, G106C
VL: B25 VL
B29: anti-PD-1 antibody 1 heavy chain S54C (antibody, human IgG4 S228P, kappa, V domains shown)
VH: B25 VH with C50G, S54C
VL: B25 VL
B30: anti-PD-1 antibody 1 heavy chain T30C (antibody, human IgG4 S228P, kappa, V domains shown)
VH: B25 VH with T30C, C50G
VL: B25 VL
B31: anti-PD-1 antibody 1 heavy chain T58C (antibody, human IgG4 S228P, kappa, V domains shown)
VH: B25 VH with C50G, T58C
VL: B25 VL
B32: anti-PD-1 antibody 2 heavy chain G33C (antibody, human IgG4 S228P, kappa, V domains shown)
VH: B1 VH with G33C, C44G
VL: B1 VL
B33: anti-PD-1 antibody 2 heavy chain G55C (antibody, human IgG4 S228P, kappa, V domains shown)
VH: B1 VH with C44G, G55C
VL: B1 VL
B34: anti-PD-1 antibody 2 heavy chain G66C (antibody, human IgG4 S228P, kappa, V domains shown)
VH: B1 VH with C44G, G66C
VL: B1 VL
B35: anti-PD-1 antibody 2 heavy chain S30C (antibody, human IgG4 S228P, kappa, V domains shown)
VH: B1 VH with S30C, C44G
VL: B1 VL
B36: anti-PD-1 antibody 2 heavy chain S32C (antibody, human IgG4 S228P, kappa, V domains shown)
VH: B1 VH with S32C, C44G
VL: B1 VL
B37: anti-PD-1 antibody 2 heavy chain S56C (antibody, human IgG4 S228P, kappa, V domains shown)
VH: B1 VH with C44G, S56C
VL: B1 VL
B38: anti-PD-1 antibody 2 heavy chain S63C (antibody, human IgG4 S228P, kappa, V domains shown)
VH: B1 VH with C44G, S63C
VL: B1 VL

Biological target: T1, PD-1 (UniProt Q15116 25-167, limits assumed)
Experiment: ELISA; S9 on the Cys
T1 sequence (Q15116 25-167 limits assumed): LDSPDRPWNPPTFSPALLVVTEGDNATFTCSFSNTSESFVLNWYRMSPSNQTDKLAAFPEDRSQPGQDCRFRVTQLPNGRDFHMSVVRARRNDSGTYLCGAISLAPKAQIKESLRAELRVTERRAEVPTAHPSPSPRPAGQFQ

| Binder | binding activity, % of wild type |
| --- | --- |
| B1 | 78.3% |
| B2 | 75.3% |
| B3 | 48.7% |
| B4 | 31.8% |
| B5 | 56.9% |
| B6 | 38.7% |
| B7 | 69.4% |
| B8 | 29.9% |
| B9 | 86.3% |
| B10 | 48.9% |
| B11 | 59.9% |

Biological target: T1, PD-1
Experiment: ELISA; S13 on the Cys

| Binder | binding activity, % of wild type |
| --- | --- |
| B1 | 30.8% |
| B2 | 42.4% |
| B3 | 27% |
| B4 | 15.3% |
| B5 | 22.9% |
| B6 | 14.6% |
| B7 | 32.3% |
| B8 | 15% |
| B9 | 42.4% |
| B10 | 21.7% |
| B11 | 32.1% |

Biological target: T1, PD-1
Experiment: ELISA; Cys mutant, no arm

| Binder | binding activity, % of wild type |
| --- | --- |
| B1 | 99.3% |
| B2 | 85% |
| B3 | 99.8% |
| B4 | 89.7% |
| B5 | 81.4% |
| B6 | 96.3% |
| B7 | 98.8% |
| B8 | 86.4% |
| B9 | 92.2% |
| B10 | 86% |
| B11 | 89.6% |

Biological target: CTLA-4 (UniProt P16410 36-162, limits assumed)
Experiment: ELISA, OD mutant/OD WT; A=90-110%

Sequence of CTLA-4 (P16410 36-162 limits assumed): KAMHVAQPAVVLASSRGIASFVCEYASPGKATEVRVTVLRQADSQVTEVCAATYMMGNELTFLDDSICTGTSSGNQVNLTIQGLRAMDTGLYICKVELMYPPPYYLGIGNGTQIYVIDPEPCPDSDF

| Binder | binding activity (OD after mutation/OD wild type) |
| --- | --- |
| B12 | 90 to 110% |
| B13 | 90 to 110% |
| B14 | 90 to 110% |
| B15 | 90 to 110% |
| B16 | 90 to 110% |
| B17 | 90 to 110% |
| B18 | 90 to 110% |
| B19 | 90 to 110% |
| B20 | 90 to 110% |
| B21 | 90 to 110% |
| B22 | 90 to 110% |
| B23 | 90 to 110% |
| B24 | 90 to 110% |

Biological target: PD-1 (UniProt Q15116 25-167, limits assumed)
Experiment: ELISA, OD mutant/OD WT; A=90-110%
Target sequence in this assay (Q15116 25-167 limits assumed): as the sequence (Q15116 25-167 limits assumed) above

| Binder | binding activity (OD after mutation/OD wild type) |
| --- | --- |
| B25 | 90 to 110% |
| B26 | 90 to 110% |
| B27 | 90 to 110% |
| B28 | 90 to 110% |
| B29 | 90 to 110% |
| B30 | 90 to 110% |
| B31 | 90 to 110% |
| B32 | 90 to 110% |
| B33 | 90 to 110% |
| B34 | 90 to 110% |
| B35 | 90 to 110% |
| B36 | 90 to 110% |
| B37 | 90 to 110% |
| B38 | 90 to 110% |
